Target: T1, CHMP3 (human, UniProt Q9Y3E7 1-222)
T1 sequence (looked up): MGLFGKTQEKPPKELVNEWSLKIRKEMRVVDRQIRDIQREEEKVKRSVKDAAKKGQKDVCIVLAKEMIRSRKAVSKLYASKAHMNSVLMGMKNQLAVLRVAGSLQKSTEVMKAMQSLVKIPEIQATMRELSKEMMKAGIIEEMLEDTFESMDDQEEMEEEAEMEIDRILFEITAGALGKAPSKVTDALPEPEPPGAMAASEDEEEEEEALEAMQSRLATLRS
Experiment: negative-stain electron microscopy

- binding result: binds
B1: CHMP2A (natural protein, human, UniProt O43633 1-222, looked up)
chain: MDLLFGRRKTPEELLRQNQRALNRAMRELDRERQKLETQEKKIIADIKKMAKQGQMDAVRIMAKDLVRTRRYVRKFVLMRANIQAVSLKIQTLKSNNSMAQAMKGVTKAMGTMNRQLKLPQIQKIMMEFERQAEIMDMKEEMMNDAIDDAMGDEEDEEESDAVVSQVLDELGLSLTDELSNLPSTGGSLSVAAGGKKAEAAASALADADADLEERLKNLRRD
